Experimental data as given in patent publication US20040091500A1.
Where a chain is given by its changes, count along the chain named. Values belong to the binder of their own block, whether it stands above or below them.

Key:
[1] = target: Serum IgE from a pool of birch allergic patients (human); experiment: fluid-phase IgE-inhibition assay
[2] = target: Serum IgE from a pool of birch allergic patients (human); experiment: fluid-phase IgE-inhibition assay; competitor biotinylated Bet v 1 no. 2801

factor by which affinity is lowered vs recombinant Bet v 1 [1]: 2 fold
B1: Bet v 1 mutant Asn28Thr+Lys32Gln (protein)
chain: GVFNYETETTSVIPAARLFKAFILDGDTLFPQVAPQAISSVENIEGNGGPGTIKKISFPEGLPFKYVKDRVDEVDHTNFKYNYSVIEGGPIGDTLEKISNEIKIVATPDGGSILKISNKYHTKGDHEVKAEQVKASKEMGETLLRAVESYLLAHSDAYN

amount to reach 80% inhibition [2]: 400 ng
factor of decrease in affinity vs recombinant Bet v 1 (at 50% inhibition) [1]: 5 fold
factor of decrease vs recombinant Bet v 1 (at 80% inhibition) [1]: 20 fold
B2: Bet v 1 Triple-patch mutant (Asn28Thr, Lys32Gln, Glu45Ser, Pro108Gly) (protein)
chain: B1 chain with E45S, P108G

amount to reach 80% inhibition [2]: 20 ng
B3: Recombinant Bet v 1 No. 2801 (protein)
chain: B1 chain with T28N, Q32K

factor by which affinity is lowered vs recombinant Bet v 1 [1]: 2 fold
B4: Bet v 1 Pro108Gly mutant (protein)
chain: B1 chain with T28N, Q32K, P108G

factor by which affinity is lowered vs recombinant Bet v 1 [1]: 2 fold
B5: Bet v 1 Glu45Ser mutant (protein)
chain: B1 chain with T28N, Q32K, E45S
